Laboratory results from PMC10275042.

Molecular target: NBS1 (UniProt O60934)
Experiment: anti-Flag co-IP
Settings: reference: wild-type Syk-Flag; sites T504

Substance: Syk (from UniProt P43405) Syk T504A
- binding against the reference: lost
